From patent publication US20200317768A1 (published 2020)

Experiments:
[1] = target: T1, Human latent myostatin (human, UniProt O14793 25-266; O14793 267-375); experiment: SPR (BIACORE) as in Example 7; antigen not given, values equal those for human latent myostatin in Table 7
T1 construct: Biotinylated in the ELISAs; also called human myostatin latent form
T1 sequence 1: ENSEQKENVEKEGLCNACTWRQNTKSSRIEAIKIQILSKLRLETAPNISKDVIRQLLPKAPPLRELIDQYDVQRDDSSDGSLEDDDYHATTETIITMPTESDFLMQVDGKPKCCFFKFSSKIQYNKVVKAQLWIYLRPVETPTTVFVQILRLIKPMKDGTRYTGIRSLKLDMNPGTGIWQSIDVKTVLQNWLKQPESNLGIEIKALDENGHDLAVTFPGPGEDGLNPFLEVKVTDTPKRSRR
T1 sequence 2: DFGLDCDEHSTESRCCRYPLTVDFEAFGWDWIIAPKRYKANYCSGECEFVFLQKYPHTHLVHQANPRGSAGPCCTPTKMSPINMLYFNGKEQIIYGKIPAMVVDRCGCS
Method: (§1) The kinetic parameters of anti-latent myostatin antibodies against human, cynomolgus monkey (cyno), and mouse latent myostatin were assessed at 37° C. at pH7.4 using a BIACORE® T200 instrument (GE Healthcare). ProA/G (Pierce) was immobilized onto all flow cells of a CM4 chip using amine coupling kit (GE Healthcare). Anti-latent myostatin antibody and analytes were prepared in ACES pH7.4 (20 mM ACES, 150 mM NaCl, 1.2 mM CaCl₂), 0.05% TWEEN® 20, 0.005% NaN₃). […] Then human, cyno, or mouse latent myostatin was injected at 3.125 to 50 nM prepared by two-fold serial dilution, followed by dissociation. The sensor surface was regenerated with 25 mM NaOH. Kinetic parameters were determined by processing and fitting the data to a 1:1 binding model using BIACORE® T200 Evaluation software, version 2.0 (GE Healthcare).
Humanized antibodies were transiently expressed in FS293-F cells, and HEK Blue Assay and BIACORE® analysis were carried out as described above.

[2] = target: T1, Human latent myostatin; experiment: SPR (BIACORE T200), 37 C, pH7.4, avidity condition (capture 185 RU), 1:1 fit; pH 7.4
[3] = target: T2, Cynomolgus monkey latent myostatin (cynomolgus monkey, UniProt Q95J86 25-266; Q95J86 267-375); experiment: as above
T2 construct: signal 1-24; also called Cyno latent myostatin
T2 sequence 1: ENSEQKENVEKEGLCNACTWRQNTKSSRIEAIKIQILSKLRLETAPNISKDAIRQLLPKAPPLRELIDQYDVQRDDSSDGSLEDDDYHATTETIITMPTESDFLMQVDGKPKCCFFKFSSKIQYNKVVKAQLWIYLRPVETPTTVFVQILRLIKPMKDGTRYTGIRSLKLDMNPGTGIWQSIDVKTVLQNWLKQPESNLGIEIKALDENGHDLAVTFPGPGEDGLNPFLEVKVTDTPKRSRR
T2 sequence 2: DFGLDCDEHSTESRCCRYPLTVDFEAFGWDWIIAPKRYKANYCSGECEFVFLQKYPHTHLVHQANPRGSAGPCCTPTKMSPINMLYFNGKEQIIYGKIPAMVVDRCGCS

[4] = target: T3, Mouse latent myostatin (mouse, UniProt O08689 26-267; O08689 268-376); experiment: as above
T3 construct: signal 1-24
T3 sequence 1: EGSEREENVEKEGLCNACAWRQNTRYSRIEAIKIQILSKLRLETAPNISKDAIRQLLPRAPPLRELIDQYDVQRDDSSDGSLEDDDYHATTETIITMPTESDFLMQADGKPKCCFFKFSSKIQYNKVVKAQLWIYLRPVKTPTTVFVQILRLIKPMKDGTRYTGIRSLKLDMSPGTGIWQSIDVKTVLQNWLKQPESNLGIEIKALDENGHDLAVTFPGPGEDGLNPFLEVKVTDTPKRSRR
T3 sequence 2: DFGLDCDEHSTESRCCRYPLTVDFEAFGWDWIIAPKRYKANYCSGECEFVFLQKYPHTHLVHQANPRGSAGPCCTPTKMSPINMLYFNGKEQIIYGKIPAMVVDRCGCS

[5] = target: T1, Human latent myostatin; experiment: SPR (BIACORE T200), 37 C, pH5.8, 1:1 fit; title prints avidity, by the text the affinity condition (capture 18.5 RU); pH 5.8
Method: as §1
(§2) All experimental settings were the same as in Example 7, except that measurements were also performed in ACES pH5.8 buffer in addition to ACES pH7.4 condition. Some antibodies were only measured against human latent myostatin. Antibody capture level was aimed at 185 RU and 18.5 RU, for avidity and affinity assay, respectively. Kinetic parameters were determined using 1:1 Binding fitting using BIACORE® T200 Evaluation software, version 2.0 (GE Healthcare).

[6] = target: T2, Cynomolgus monkey latent myostatin; experiment: as above
Method: as §1, §2

[7] = target: T3, Mouse latent myostatin; experiment: as above
Method: as §1, §2

[8] = target: T1, Human latent myostatin; experiment: SPR (BIACORE T200), 37 C, pH5.8, avidity condition (capture 185 RU), 1:1 fit; pH 5.8
[9] = target: T2, Cynomolgus monkey latent myostatin; experiment: SPR (BIACORE T200), 37 C, pH7.4, 1:1 fit; title prints avidity, by the text the affinity condition (capture 18.5 RU); pH 7.4
Method: as §1, §2

B1: MS_M103205H000-SG1/M103202LO00-SK1 (antibody, human IgG1, kappa, V domains shown)
VH: QVTLKESGPVLVKPTETLTLTCTVSGIDLSSYDISWVRQAPGKGLEWVGIISYAGSTYYASWAKGRLTISKDTSKNQVVLTMTNMDPVDTATYYCARGVPAYSTGGDLWGQGTLVTVSS
VL: DIVMTQSPATLSLSPGERATLSCQSSQSVYDNNWLSWFQQKPGQPPKLLIYWASTLASGVPSRFSGSGSGTDFTLTISSLQPEDAATYYCAGGYGGGLYAFGQGTKVEIKR
notes: Humanized MST1032, not pH-dependent; also called MS1032LO00-SG1; Ab001
Question: What does the source list for B1?
Answer: Kd [1]: 0.075 nM; koff [1]: 9.52e-05 s⁻¹; kon [1]: 1.27e+06 M⁻¹ s⁻¹; Kd [2]: 0.075 nM; koff [2]: 9.52e-05 s⁻¹; kon [2]: 1.27e+06 M⁻¹ s⁻¹; Kd [3]: 0.066 nM; koff [3]: 8.08e-05 s⁻¹; kon [3]: 1.21e+06 M⁻¹ s⁻¹; Kd [4]: 0.0471 nM; koff [4]: 7.18e-05 s⁻¹; kon [4]: 1.52e+06 M⁻¹ s⁻¹; Kd [5]: 0.215 nM; koff [5]: 0.000235 s⁻¹; kon [5]: 1.09e+06 M⁻¹ s⁻¹; Kd [6]: 0.139 nM; koff [6]: 0.000196 s⁻¹; kon [6]: 1.41e+06 M⁻¹ s⁻¹; Kd [7]: 0.0438 nM; koff [7]: 7.08e-05 s⁻¹; kon [7]: 1.62e+06 M⁻¹ s⁻¹; Kd [8]: 0.0797 nM; koff [8]: 0.000128 s⁻¹; kon [8]: 1.6e+06 M⁻¹ s⁻¹; Kd [9]: 0.209 nM; koff [9]: 0.000213 s⁻¹; kon [9]: 1.02e+06 M⁻¹ s⁻¹
